The values that follow come from article PMC8800102.

Like-named read-outs stand apart in the source and are kept apart here.

What all share (assay): NMR titration
Data set [1] deals with T1, Sds3 capped Tudor domain (CTD) (mouse, UniProt Q8BR65 250-326).
T1 sequence: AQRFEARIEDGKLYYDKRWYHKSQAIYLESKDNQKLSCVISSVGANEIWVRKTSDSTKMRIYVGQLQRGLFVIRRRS

Data set [2] concerns the target T1, Sds3 capped Tudor domain (CTD). This is another data set of the same source.
For data set [3] the target is unchanged. This is another data set of the same source.

For the molecule TGTGGTT (ssDNA) [SELEX 7mer motif], the binding result in data set [1] was “no binding”.

As for AACUGUCG (ssRNA) [random RNA 8mer], the binding result in data set [2] is reported as “no binding”. For TTGGGG (structured_DNA) [T2G4], the binding result in data set [3] was “binds”.
